Source: patent publication US20150297748A1 (Daiichi Sankyo, published 2015)

T1: human B7-H3 variant 1 (human, UniProt Q5ZPR3 27-534)
T1 sequence: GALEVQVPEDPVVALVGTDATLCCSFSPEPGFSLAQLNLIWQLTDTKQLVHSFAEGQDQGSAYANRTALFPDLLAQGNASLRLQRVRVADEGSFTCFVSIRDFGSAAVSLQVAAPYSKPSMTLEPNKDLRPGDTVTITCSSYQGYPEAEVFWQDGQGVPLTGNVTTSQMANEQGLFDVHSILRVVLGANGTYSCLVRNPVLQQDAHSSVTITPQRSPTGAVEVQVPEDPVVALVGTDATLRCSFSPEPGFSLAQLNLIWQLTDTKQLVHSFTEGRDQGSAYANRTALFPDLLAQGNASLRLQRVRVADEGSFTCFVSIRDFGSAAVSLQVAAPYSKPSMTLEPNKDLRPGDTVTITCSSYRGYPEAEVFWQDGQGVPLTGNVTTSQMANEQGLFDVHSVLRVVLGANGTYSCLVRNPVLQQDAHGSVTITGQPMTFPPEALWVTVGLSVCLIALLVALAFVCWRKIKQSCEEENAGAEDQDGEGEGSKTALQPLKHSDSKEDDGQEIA

T2: CD30 (UniProt P28908 19-595, limits assumed)
T2 sequence (looked up): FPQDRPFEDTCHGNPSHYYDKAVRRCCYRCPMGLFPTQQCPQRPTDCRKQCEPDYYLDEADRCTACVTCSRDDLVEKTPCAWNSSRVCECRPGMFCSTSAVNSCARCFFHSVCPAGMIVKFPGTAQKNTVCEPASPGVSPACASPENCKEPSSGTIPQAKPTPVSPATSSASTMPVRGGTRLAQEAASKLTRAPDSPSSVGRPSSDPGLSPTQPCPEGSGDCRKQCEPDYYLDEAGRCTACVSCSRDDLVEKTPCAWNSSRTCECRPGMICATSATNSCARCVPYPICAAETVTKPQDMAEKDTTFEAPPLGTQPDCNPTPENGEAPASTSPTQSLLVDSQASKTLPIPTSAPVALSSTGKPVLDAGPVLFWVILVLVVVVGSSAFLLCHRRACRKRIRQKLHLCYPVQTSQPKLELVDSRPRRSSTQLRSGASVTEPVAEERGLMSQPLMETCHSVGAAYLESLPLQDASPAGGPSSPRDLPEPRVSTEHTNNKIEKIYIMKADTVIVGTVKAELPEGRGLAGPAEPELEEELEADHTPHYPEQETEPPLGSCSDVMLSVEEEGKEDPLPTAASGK

T3: CD70 (UniProt P32970 1-193, limits assumed)
T3 sequence (looked up): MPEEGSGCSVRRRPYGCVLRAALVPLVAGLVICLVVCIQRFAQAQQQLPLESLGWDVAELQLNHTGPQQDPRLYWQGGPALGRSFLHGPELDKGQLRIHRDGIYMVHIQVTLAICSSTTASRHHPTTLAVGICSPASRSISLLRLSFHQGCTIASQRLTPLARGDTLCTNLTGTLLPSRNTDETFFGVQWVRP

B1: Antibody-drug conjugate (5) (antibody, human IgG1, kappa, V domains shown)
VH: QVQLVQSGAEVKKPGSSVKVSCKASGYTFTNYVMHWVRQAPGQGLEWMGYINPYNDDVKYNEKFKGRVTITADESTSTAYMELSSLRSEDTAVYYCARWGYYGSPLYYFDYWGQGTLVTVSS
VL: EIVLTQSPATLSLSPGERATLSCRASSRLIYMHWYQQKPGQAPRPLIYATSNLASGIPARFSGSGSGTDFTLTISSLEPEDFAVYYCQQWNSNPPTFGQGTKVEIKR
modifications: drug-linker 6-maleimidohexanoyl-GGFG-NH-(CH2)3-C(=O)-exatecan (compound of Process 3 of Example 2) on cysteines of the reduced hinge disulfide bonds; average 6.7 per antibody molecule; positions not given
B2: Antibody-drug conjugate (21) (antibody, human IgG1, kappa, V domains shown)
VH: B1 VH
VL: B1 VL
modifications: drug-linker 3-maleimidopropanoyl-NH-(CH2CH2O)2-CH2CH2-C(=O)-GGFG-NH-(CH2)3-C(=O)-exatecan (compound of Process 1 of Example 14) on cysteines of the reduced hinge disulfide bonds; average 5.5 per antibody molecule; positions not given
B3: Antibody-drug conjugate (45) (antibody, human IgG1, kappa, V domains shown)
VH: B1 VH
VL: B1 VL
modifications: drug-linker 6-maleimidohexanoyl-GGFG-NH-CH2CH2-O-CH2-C(=O)-exatecan (compound of Process 3 of Example 43) on cysteines of the reduced hinge disulfide bonds; average 3.7 per antibody molecule; positions not given
B4: Antibody-drug conjugate (16) (antibody, human IgG1, kappa, V domains shown)
VH: B1 VH
VL: B1 VL
modifications: drug-linker 3-maleimidopropanoyl-NH-(CH2CH2O)2-CH2CH2-C(=O)-GGFG-NH-(CH2)3-C(=O)-exatecan (compound of Process 1 of Example 14) on cysteines of the reduced hinge disulfide bonds; average 6.5 per antibody molecule; positions not given
B5: Antibody-drug conjugate (32) (antibody, human IgG1, kappa, V domains shown)
VH: B1 VH
VL: B1 VL
modifications: drug-linker from N-(bromoacetyl)-beta-alanyl-GGFG-NH-(CH2)3-C(=O)-exatecan (compound of Process 3 of Example 30) on cysteines of the reduced hinge disulfide bonds; average 6.0 per antibody molecule; positions not given
B6: Antibody-drug conjugate (52) (antibody, human IgG1, kappa, V domains shown)
VH: B1 VH
VL: B1 VL
modifications: drug-linker 6-maleimidohexanoyl-GGFG-NH-(CH2)5-C(=O)-exatecan (compound of Process 5 of Example 54) on cysteines of the reduced hinge disulfide bonds; average 3.1 per antibody molecule; positions not given
B7: Antibody-drug conjugate (44) (antibody, human IgG1, kappa, V domains shown)
VH: B1 VH
VL: B1 VL
modifications: drug-linker 6-maleimidohexanoyl-GGFG-NH-CH2CH2-O-CH2-C(=O)-exatecan (compound of Process 3 of Example 43) on cysteines of the reduced hinge disulfide bonds; average 6.6 per antibody molecule; positions not given
B8: Antibody-drug conjugate (54) (antibody, human IgG1, kappa, V domains shown)
VH: B1 VH
VL: B1 VL
modifications: drug-linker 6-maleimidohexanoyl-GGFG-NH-(CH2)5-C(=O)-exatecan (compound of Process 5 of Example 54) on cysteines of the reduced hinge disulfide bonds; average 3.0 per antibody molecule; positions not given
B9: Antibody-drug conjugate (46) (antibody, human IgG1, kappa, V domains shown)
VH: B1 VH
VL: B1 VL
modifications: drug-linker 6-maleimidohexanoyl-GGFG-NH-CH2CH2-O-CH2-C(=O)-exatecan (compound of Process 3 of Example 43) on cysteines of the reduced hinge disulfide bonds; average 5.2 per antibody molecule; positions not given
B10: Antibody-drug conjugate (6) (antibody, human IgG1, kappa, V domains shown)
VH: QIQLQQSGPEVVKPGASVKISCKASGYTFTDYYITWVKQKPGQGLEWIGWIYPGSGNTKYNEKFKGKATLTVDTSSSTAFMQLSSLTSEDTAVYFCANYGNYWFAYWGQGTQVTVSA
VL: DIVLTQSPASLAVSLGQRATISCKASQSVDFDGDSYMNWYQQKPGQPPKVLIYAASNLESGIPARFSGSGSGTDFTLNIHPVEEEDAATYYCQQSNQDPWTFGGGTKLEIKR
modifications: drug-linker 6-maleimidohexanoyl-GGFG-NH-(CH2)3-C(=O)-exatecan (compound of Process 3 of Example 2) on cysteines of the reduced hinge disulfide bonds; average 3.3 per antibody molecule; positions not given
B11: Antibody-drug conjugate (23) (antibody, V domains shown)
VH: B10 VH
VL: B10 VL
modifications: drug-linker 3-maleimidopropanoyl-NH-(CH2CH2O)2-CH2CH2-C(=O)-GGFG-NH-(CH2)3-C(=O)-exatecan (compound of Process 1 of Example 14) on cysteines of the reduced hinge disulfide bonds; average 7.1 per antibody molecule; positions not given
B12: Antibody-drug conjugate (64) (antibody, V domains shown)
VH: B10 VH
VL: B10 VL
modifications: drug-linker 6-maleimidohexanoyl-GGFG-NH-CH2-O-CH2-C(=O)-exatecan (compound of Process 8 of Example 58) on cysteines of the reduced hinge disulfide bonds; average 3.7 per antibody molecule; positions not given
B13: Antibody-drug conjugate (38) (antibody, V domains shown)
VH: B10 VH
VL: B10 VL
modifications: drug-linker from the N-succinimidyl ester of suberoyl-GGFG-NH-(CH2)3-C(=O)-exatecan (compound of Process 1 of Example 37); average 2.7 per antibody molecule; chain and positions not stated
B14: Antibody-drug conjugate (7) (antibody, V domains shown)
VH: B10 VH
VL: B10 VL
modifications: drug-linker 6-maleimidohexanoyl-GGFG-NH-(CH2)3-C(=O)-exatecan (compound of Process 3 of Example 2) on cysteines of the reduced hinge disulfide bonds; average 3.8 per antibody molecule; positions not given
B15: Antibody-drug conjugate (65) (antibody, V domains shown)
VH: B10 VH
VL: B10 VL
modifications: drug-linker 6-maleimidohexanoyl-GGFG-NH-CH2-O-CH2-C(=O)-exatecan (compound of Process 8 of Example 58) on cysteines of the reduced hinge disulfide bonds; average 6.8 per antibody molecule; positions not given
B16: Antibody-drug conjugate (22) (antibody, V domains shown)
VH: B10 VH
VL: B10 VL
modifications: drug-linker 3-maleimidopropanoyl-NH-(CH2CH2O)2-CH2CH2-C(=O)-GGFG-NH-(CH2)3-C(=O)-exatecan (compound of Process 1 of Example 14) on cysteines of the reduced hinge disulfide bonds; average 2.5 per antibody molecule; positions not given
B17: Antibody-drug conjugate (8) (antibody, V domains shown)
VH: EVQLVQSGAEVKKPGSSVKVSCKASGYTITDSNIHWVRQAPGQSLEWIGYIYPYNGGTDYNQKFKNRATLTVDNPTNTAYMELSSLRSEDTAFYYCVNGNPWLAYWGQGTLVTVSS
VL: DIQLTQSPSTLSASVGDRVTITCRASQSLDNYGIRFLTWFQQKPGKAPKLLMYAASNQGSGVPSRFSGSGSGTEFTLTISSLQPDDFATYYCQQTKEVPWSFGQGTKVEVKR
modifications: drug-linker 6-maleimidohexanoyl-GGFG-NH-(CH2)3-C(=O)-exatecan (compound of Process 3 of Example 2) on cysteines of the reduced hinge disulfide bonds; average 3.4 per antibody molecule; positions not given
B18: Antibody-drug conjugate (9) (antibody, V domains shown)
VH: B17 VH
VL: B17 VL
modifications: drug-linker 6-maleimidohexanoyl-GGFG-NH-(CH2)3-C(=O)-exatecan (compound of Process 3 of Example 2) on cysteines of the reduced hinge disulfide bonds; average 3.7 per antibody molecule; positions not given
B19: Antibody-drug conjugate (25) (antibody, V domains shown)
VH: B17 VH
VL: B17 VL
modifications: drug-linker 3-maleimidopropanoyl-NH-(CH2CH2O)2-CH2CH2-C(=O)-GGFG-NH-(CH2)3-C(=O)-exatecan (compound of Process 1 of Example 14) on cysteines of the reduced hinge disulfide bonds; average 7.3 per antibody molecule; positions not given
B20: Antibody-drug conjugate (10) (antibody, V domains shown)
VH: QVQLVQSGAEVKKPGASVKVSCKASGYTFTNYGMNWVRQAPGQGLKWMGWINTYTGEPTYADAFKGRVTMTRDTSISTAYMELSRLRSDDTAVYYCARDYGDYGMDYWGQGTTVTVSS
VL: DIVMTQSPDSLAVSLGERATINCRASKSVSTSGYSFMHWYQQKPGQPPKLLIYLASNLESGVPDRFSGSGSGTDFTLTISSLQAEDVAVYYCQHSREVPWTFGQGTKVEIKR
modifications: drug-linker 6-maleimidohexanoyl-GGFG-NH-(CH2)3-C(=O)-exatecan (compound of Process 3 of Example 2) on cysteines of the reduced hinge disulfide bonds; average 3.2 per antibody molecule; positions not given
B21: Antibody-drug conjugate (11) (antibody, V domains shown)
VH: B20 VH
VL: B20 VL
modifications: drug-linker 6-maleimidohexanoyl-GGFG-NH-(CH2)3-C(=O)-exatecan (compound of Process 3 of Example 2) on cysteines of the reduced hinge disulfide bonds; average 3.6 per antibody molecule; positions not given
B22: M30 antibody (antibody, mouse IgG2a, kappa, V domains shown)
VH: EVQLQQSGPELVKPGASVKMSCKASGYTFTNYVMHWVKQKPGQGLEWIGYINPYNDDVKYNEKFKGKATQTSDKSSSTAYMELSSLTSEDSAVYYCARWGYYGSPLYYFDYWGQGTTLTVSS
VL: QIVLSQSPTILSASPGEKVTMTCRASSRLIYMHWYQQKPGSSPKPWIYATSNLASGVPARFSGSGSGTSYSLTISRVEAEDAATYYCQQWNSNPPTFGTGTKLELKR
notes: Mouse monoclonal antibody produced by the B7-H3 hybridoma M30

target: T1, human B7-H3 variant 1; test: cell-based or functional assay

Binder	IC50, cytotoxic activity against the CEM_V1-3.1-2 cells
B1	< 100 pM
B2	< 100 pM
B3	< 100 pM
B4	< 100 pM
B5	< 100 pM
B6	< 100 pM
B7	< 100 pM
B8	< 100 pM
B9	< 100 pM

target: T2, CD30; test: cell-based or functional assay

Binder	IC50, cytotoxic activity against the SR cells
B10	< 10 pM
B11	< 10 pM
B12	< 10 pM
B13	< 10 pM
B14	< 10 pM
B15	< 10 pM
B16	< 100 pM

target: CD33 (UniProt P20138 18-364, limits assumed); test: cell-based or functional assay
Sequence (P20138 18-364 limits assumed): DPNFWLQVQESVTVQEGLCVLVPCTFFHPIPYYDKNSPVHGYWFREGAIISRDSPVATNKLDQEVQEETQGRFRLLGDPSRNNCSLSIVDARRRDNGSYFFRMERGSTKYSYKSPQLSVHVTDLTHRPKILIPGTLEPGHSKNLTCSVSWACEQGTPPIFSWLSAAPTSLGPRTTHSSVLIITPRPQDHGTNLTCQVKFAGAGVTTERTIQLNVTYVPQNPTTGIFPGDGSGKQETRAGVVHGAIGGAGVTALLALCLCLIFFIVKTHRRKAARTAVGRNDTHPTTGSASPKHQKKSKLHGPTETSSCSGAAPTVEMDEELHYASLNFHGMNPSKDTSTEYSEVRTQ

Binder	IC50, cytotoxic activity against the HL-60 cells	IC50, cytotoxic activity against the NOMO-1 cells
B17	< 100 pM	–
B18	< 100 pM	–
B19	–	< 100 pM

target: T3, CD70; test: cell-based or functional assay

Binder	IC50, cytotoxic activity against the U251 cells
B20	< 1000 pM
B21	< 1000 pM

target: T1, human B7-H3 variant 1; test: flow cytometry: 10 µg/mL M30 on CCRF-CEM clones transfected with pcDNA3.1-B7-H3, detected with fluorescein-conjugated goat anti-mouse IgG
Protocol: Flow cytometry was used for confirming B7-H3 expression in each recovered clone. Specifically, each recovered clone was washed twice with PBS containing 5% FBS, thereafter suspended by the addition of PBS containing 5% FBS and 10 μg/mL M30, and left standing at 4° C. for 30 minutes. The clone was washed twice with PBS containing 5% FBS, thereafter suspended by the addition of Fluorescein-conjugated goat IgG fraction to mouse IgG (Whole Molecule) (455493, manufactured by ICN Pharmaceuticals, Inc.) diluted 1000-fold with PBS containing 5% FBS, and left standing at 4° C. for 30 minutes. The clone was washed twice with PBS containing 5% FBS, thereafter resuspended in PBS containing 5% FBS, and detected by using a flow cytometer (FC500: Beckman Coulter, Inc.).

Binder	binding result
B22	binds
